Legend:
Fer (mouse) = assay: phosphorylation enrichment, bacterial display (enrichment ratio); higher = better substrate or ligand; peptides without Tyr show the background
Fes = Fes (UniProt P07332); assay: as above
Fyn = Fyn (UniProt P06241); assay: as above
EPHB1 = EPHB1 (UniProt P54762); assay: as above
c-Abl (mouse) = assay: as above
Hck = Hck (UniProt P08631); assay: as above
FGFR3 = FGFR3 (UniProt P22607); assay: as above
EPHB2 = EPHB2 (UniProt P29323); assay: as above
MERTK = MERTK (UniProt Q12866); assay: as above
c-Src = assay: as above
FGFR1 = FGFR1 (UniProt P11362); assay: as above
Sequence of FGFR1 (P11362 whole entry, looked up): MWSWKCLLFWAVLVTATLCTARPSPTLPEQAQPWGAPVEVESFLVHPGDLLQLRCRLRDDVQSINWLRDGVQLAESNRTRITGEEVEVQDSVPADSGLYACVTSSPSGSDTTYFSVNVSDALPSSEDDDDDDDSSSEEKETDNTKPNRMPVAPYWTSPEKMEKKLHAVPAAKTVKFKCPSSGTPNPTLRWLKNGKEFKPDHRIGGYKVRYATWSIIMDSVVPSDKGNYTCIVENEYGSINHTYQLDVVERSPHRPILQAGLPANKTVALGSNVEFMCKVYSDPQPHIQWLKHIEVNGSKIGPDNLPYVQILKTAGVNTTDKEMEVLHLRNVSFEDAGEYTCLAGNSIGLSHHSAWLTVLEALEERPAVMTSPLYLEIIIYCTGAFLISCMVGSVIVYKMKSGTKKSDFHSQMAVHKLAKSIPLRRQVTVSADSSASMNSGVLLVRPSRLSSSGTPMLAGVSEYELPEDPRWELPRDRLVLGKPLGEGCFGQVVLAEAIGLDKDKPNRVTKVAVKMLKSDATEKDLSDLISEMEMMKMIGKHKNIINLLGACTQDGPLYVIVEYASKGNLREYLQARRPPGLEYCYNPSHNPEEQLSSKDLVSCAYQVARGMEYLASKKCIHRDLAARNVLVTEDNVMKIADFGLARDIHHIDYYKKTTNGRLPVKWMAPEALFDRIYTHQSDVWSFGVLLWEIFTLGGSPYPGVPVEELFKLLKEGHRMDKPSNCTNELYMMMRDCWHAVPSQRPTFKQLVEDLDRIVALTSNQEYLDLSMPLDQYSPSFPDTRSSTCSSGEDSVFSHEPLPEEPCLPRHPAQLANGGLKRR

Jak2 = Jak2 (UniProt O60674); assay: as above
Sequence of Jak2 (O60674 whole entry, looked up): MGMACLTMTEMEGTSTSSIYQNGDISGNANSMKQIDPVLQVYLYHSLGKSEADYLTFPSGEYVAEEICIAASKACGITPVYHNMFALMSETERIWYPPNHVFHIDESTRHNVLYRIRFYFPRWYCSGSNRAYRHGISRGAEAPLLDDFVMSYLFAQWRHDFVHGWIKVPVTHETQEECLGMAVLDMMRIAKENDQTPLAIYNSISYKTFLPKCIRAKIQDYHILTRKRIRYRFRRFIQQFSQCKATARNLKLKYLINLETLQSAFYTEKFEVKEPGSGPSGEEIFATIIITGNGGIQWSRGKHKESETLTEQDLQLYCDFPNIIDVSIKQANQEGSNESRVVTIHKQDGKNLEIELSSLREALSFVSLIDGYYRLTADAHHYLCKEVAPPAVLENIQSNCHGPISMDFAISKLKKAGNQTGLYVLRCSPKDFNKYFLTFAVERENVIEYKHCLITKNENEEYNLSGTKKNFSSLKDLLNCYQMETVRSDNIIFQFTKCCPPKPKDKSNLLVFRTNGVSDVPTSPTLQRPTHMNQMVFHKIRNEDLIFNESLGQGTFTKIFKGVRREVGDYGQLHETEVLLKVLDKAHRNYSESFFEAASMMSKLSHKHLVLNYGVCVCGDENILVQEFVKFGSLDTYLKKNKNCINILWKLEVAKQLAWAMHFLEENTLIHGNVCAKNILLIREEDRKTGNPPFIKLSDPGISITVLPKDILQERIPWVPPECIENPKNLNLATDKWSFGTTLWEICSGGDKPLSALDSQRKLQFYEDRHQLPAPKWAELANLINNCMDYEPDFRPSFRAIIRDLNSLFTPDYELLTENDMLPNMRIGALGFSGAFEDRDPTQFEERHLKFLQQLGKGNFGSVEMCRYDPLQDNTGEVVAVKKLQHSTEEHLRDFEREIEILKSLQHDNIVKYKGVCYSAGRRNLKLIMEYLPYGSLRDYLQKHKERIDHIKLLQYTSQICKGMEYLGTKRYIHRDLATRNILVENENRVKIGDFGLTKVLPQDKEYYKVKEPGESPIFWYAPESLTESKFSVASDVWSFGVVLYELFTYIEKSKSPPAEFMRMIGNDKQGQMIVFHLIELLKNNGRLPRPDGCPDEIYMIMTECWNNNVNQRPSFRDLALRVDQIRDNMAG

AncSZ = assay: as above
SHP2-C SH2 = assay: SH2 binding enrichment of the phosphorylated peptide, bacterial display (enrichment ratio); higher = better substrate or ligand; peptides without Tyr show the background
Grb2 SH2 = Grb2 SH2 (UniProt P62993); assay: as above
c-Src SH2 = assay: as above
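Wherever SH2 binding enrichment of the phosphorylated peptide, bacterial display is given: peptide library displayed on the E. coli surface as eCPX fusions, selected cells deep-sequenced, score is each peptide's frequency after selection divided by its frequency in the input.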
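Wherever phosphorylation enrichment, bacterial display is given: 11-residue human phosphosite peptides and single-mutation variants displayed on the E. coli surface, counted by deep sequencing, each peptide's frequency after selection divided by its frequency in the unselected input library; frequency after pTyr selection over input frequency; kinase dosed for 20-30% of maximal phosphorylation in three min.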

Sequence of EPHB2 (P29323 whole entry, looked up): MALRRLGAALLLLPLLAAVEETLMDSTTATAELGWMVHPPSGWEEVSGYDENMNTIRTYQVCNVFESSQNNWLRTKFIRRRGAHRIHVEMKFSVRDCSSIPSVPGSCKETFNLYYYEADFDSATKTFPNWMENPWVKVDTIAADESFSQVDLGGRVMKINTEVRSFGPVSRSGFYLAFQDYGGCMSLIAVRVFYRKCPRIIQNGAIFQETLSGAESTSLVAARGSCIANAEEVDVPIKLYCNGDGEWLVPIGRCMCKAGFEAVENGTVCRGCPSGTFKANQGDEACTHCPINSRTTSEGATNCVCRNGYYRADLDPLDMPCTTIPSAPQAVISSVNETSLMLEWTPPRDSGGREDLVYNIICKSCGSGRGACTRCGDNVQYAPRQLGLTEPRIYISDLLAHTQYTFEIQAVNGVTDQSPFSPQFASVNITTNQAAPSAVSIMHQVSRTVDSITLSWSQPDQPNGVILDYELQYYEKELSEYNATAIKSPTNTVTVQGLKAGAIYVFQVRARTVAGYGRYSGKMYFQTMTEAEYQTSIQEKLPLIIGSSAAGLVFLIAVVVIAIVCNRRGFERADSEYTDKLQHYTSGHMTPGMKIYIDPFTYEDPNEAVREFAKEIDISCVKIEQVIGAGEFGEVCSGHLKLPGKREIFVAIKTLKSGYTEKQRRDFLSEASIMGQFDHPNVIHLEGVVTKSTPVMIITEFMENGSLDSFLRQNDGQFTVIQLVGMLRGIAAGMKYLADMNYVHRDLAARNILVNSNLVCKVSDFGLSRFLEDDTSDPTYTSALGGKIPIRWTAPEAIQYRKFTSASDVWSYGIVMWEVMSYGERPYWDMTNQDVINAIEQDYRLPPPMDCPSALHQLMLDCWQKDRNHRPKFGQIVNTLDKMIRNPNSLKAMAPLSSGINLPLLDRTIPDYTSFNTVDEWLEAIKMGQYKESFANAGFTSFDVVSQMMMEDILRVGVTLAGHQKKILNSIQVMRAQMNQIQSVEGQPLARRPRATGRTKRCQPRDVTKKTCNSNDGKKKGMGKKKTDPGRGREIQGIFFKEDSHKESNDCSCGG
Sequence of Hck (P08631 whole entry, looked up): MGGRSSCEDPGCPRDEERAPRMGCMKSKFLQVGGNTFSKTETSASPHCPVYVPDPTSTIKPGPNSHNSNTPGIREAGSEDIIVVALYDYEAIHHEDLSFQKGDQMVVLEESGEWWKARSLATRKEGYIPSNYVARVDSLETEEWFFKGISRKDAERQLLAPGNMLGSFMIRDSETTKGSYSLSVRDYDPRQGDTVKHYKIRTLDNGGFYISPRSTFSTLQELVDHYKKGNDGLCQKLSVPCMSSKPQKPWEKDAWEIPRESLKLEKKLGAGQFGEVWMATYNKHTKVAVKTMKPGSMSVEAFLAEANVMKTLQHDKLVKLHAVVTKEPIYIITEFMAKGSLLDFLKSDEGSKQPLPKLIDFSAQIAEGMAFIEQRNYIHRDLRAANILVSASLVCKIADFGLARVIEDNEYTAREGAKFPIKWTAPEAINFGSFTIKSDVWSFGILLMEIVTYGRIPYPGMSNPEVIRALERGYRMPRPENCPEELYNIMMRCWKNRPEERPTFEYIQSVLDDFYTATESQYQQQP
Sequence of EPHB1 (P54762 whole entry, looked up): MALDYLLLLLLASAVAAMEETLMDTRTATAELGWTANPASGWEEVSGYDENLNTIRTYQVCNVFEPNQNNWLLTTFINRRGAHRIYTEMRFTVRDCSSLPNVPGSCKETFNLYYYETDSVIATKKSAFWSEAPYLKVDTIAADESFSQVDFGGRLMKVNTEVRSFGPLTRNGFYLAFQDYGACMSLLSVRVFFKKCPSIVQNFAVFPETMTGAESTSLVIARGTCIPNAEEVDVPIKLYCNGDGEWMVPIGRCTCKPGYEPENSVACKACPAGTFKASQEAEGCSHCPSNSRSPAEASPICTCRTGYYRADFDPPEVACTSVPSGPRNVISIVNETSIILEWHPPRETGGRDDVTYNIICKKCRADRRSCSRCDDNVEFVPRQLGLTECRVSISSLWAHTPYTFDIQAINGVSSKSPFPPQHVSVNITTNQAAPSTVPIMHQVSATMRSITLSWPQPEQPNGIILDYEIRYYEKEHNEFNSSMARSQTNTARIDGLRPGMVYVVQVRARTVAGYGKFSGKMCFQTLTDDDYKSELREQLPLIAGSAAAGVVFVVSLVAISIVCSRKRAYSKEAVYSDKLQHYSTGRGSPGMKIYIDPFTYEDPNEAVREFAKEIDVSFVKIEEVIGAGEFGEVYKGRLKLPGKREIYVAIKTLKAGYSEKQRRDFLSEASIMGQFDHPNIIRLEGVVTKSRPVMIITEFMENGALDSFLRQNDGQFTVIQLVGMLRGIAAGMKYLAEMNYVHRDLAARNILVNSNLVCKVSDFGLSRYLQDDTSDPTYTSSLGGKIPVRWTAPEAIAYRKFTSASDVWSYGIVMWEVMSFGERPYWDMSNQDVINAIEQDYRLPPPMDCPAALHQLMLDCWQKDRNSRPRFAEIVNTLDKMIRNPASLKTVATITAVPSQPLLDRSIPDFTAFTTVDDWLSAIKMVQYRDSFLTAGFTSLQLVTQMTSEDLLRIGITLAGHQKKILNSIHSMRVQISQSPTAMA
Sequence of Fyn (P06241 whole entry, looked up): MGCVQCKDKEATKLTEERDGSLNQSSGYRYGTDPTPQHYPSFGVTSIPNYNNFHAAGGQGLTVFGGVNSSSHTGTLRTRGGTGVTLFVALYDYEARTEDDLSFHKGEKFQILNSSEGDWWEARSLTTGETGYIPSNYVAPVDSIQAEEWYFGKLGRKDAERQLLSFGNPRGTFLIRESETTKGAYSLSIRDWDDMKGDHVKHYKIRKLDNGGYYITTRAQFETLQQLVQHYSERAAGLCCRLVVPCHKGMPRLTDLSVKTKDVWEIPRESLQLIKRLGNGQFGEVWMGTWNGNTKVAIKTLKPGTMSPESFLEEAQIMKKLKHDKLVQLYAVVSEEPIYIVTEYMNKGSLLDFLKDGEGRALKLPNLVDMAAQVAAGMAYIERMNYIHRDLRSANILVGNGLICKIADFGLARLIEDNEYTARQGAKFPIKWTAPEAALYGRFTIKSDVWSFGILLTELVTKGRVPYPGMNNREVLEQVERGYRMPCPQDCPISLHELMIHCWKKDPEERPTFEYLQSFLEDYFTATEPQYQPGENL

| Sequence | phosphorylation enrichment (Fer (mouse)) | phosphorylation enrichment (Fes) | phosphorylation enrichment (Fyn) | phosphorylation enrichment (EPHB1) | phosphorylation enrichment (c-Abl (mouse)) | phosphorylation enrichment (Hck) | phosphorylation enrichment (FGFR3) | phosphorylation enrichment (EPHB2) | phosphorylation enrichment (MERTK) | phosphorylation enrichment (c-Src) | phosphorylation enrichment (FGFR1) | phosphorylation enrichment (Jak2) | phosphorylation enrichment (AncSZ) | SH2 binding enrichment (SHP2-C SH2) | SH2 binding enrichment (Grb2 SH2) | SH2 binding enrichment (c-Src SH2) |
| --- | --- | --- | --- | --- | --- | --- | --- | --- | --- | --- | --- | --- | --- | --- | --- | --- |
| GLAKEYIDPET [CSNK1G2_Y195] | 0.509 | 0.941 | 0.494 | 0.527 | 0.592 | 0.449 | 0.604 | 0.462 | 0.4 | 0.454 | 0.544 | 0.904 | 0.743 | 0.967 | 0.942 | 0.448 |
| KEGSAYGSQSV [NFKB2_Y868_D865G] | 0.423 | 0.75 | 0.395 | 0.461 | 0.632 | 0.426 | 0.498 | 0.384 | 0.436 | 0.468 | 0.312 | 0.673 | 0.58 | 0.379 | 0.648 | 0.447 |
| IAINKYGVSLI [MYO7A_Y2136] | 0.527 | 1.12 | 0.432 | 0.608 | 0.744 | 0.497 | 0.594 | 0.613 | 0.426 | 0.441 | 0.619 | 1.01 | 0.837 | 0.703 | 0.946 | 0.657 |
| CEDGTYSPEIS [PTDSS1_Y424] | 0.589 | 1.33 | 0.512 | 0.649 | 0.838 | 0.595 | 0.824 | 0.578 | 0.486 | 0.663 | 0.5 | 1.33 | 1.2 | 1.13 | 0.835 | 0.519 |
| GQECKYPPTQD [METAP2_Y137_E136K] | 0.511 | 1.14 | 0.515 | 0.521 | 0.727 | 0.52 | 0.638 | 0.507 | 0.553 | 0.504 | 0.569 | 1.03 | 0.86 | 0.689 | 1.04 | 0.63 |
| EMFNPCFGLFE [NEDD4L_Y679_Y679C_YF] | 0.811 | 1.45 | 0.543 | 0.71 | 1.29 | 0.562 | 0.798 | 0.687 | 0.554 | 0.725 | 0.667 | 1.41 | 1.27 | 0.792 | 1.08 | 0.716 |
| HAVFVCDICHV [TWNK_Y508_Y508C_YF] | 0.696 | 0.836 | 0.455 | 0.627 | 0.641 | 0.603 | 0.775 | 0.631 | 0.689 | 0.807 | 0.506 | 0.948 | 0.933 | 1.41 | 1.97 | 1.98 |
| IFRASYFRKGG [ALK_Y1282_YF] | 0.581 | 0.899 | 0.619 | 0.55 | 0.721 | 0.674 | 0.625 | 0.621 | 0.706 | 0.688 | 0.518 | 1.11 | 1.02 | 0.513 | 0.589 | 0.461 |
| RLLRGYDQFAY [HLA-C_Y137_S140F] | 0.502 | 0.848 | 0.395 | 0.422 | 0.775 | 0.49 | 0.617 | 0.433 | 0.433 | 0.514 | 0.49 | 0.567 | 0.794 | 1.14 | 1.47 | 1.65 |
| NELTYYCCKKD [CD59_Y87] | 3.67 | 1.3 | 2.92 | 0.923 | 1.48 | 3.04 | 3.92 | 1.17 | 4.45 | 3.91 | 7.15 | 2.83 | 1.9 | 0.766 | 0.78 | 0.438 |
| LVRAFYCERRR [CARD11_Y970] | 0.624 | 0.713 | 0.844 | 0.62 | 0.597 | 1.14 | 0.585 | 1.71 | 0.902 | 0.988 | 0.766 | 0.705 | 0.684 | 0.449 | 0.383 | 0.243 |
| FGLDHYQCDCT [PTGS1_Y54_R53H] | 0.464 | 0.986 | 0.379 | 0.401 | 0.61 | 0.424 | 0.68 | 0.5 | 0.489 | 0.464 | 0.453 | 0.812 | 0.956 | 1.59 | 1.13 | 1.14 |
| PTTKTYFPHFG [HBA1_Y43_D48G] | 0.435 | 0.645 | 0.458 | 0.543 | 0.491 | 0.372 | 0.556 | 0.322 | 0.397 | 0.747 | 0.501 | 0.958 | 0.658 | 0.792 | 1.06 | 0.5 |
| IDSTPYRQWYE [RPS8_Y109] | 0.51 | 1.05 | 0.492 | 0.455 | 0.608 | 0.514 | 0.753 | 0.501 | 0.424 | 0.606 | 0.521 | 0.79 | 1.28 | 0.814 | 0.731 | 0.771 |
| GSCQEYTGAPY [NAXD_Y85_G81S] | 0.494 | 0.894 | 0.441 | 0.573 | 0.668 | 0.545 | 0.7 | 0.537 | 0.432 | 0.505 | 0.558 | 0.805 | 1.14 | 0.764 | 0.799 | 0.825 |
| HNLDYYKQTTN [FGFR3_Y648_K650Q] | 0.585 | 1.01 | 0.714 | 0.786 | 0.793 | 0.704 | 2.61 | 0.536 | 0.658 | 0.476 | 3.5 | 1.27 | 0.979 | 0.883 | 0.656 | 0.839 |
| TTTQAYRVNER [PRKN_Y391_D394N] | 0.447 | 0.514 | 0.324 | 0.445 | 0.492 | 0.397 | 0.386 | 0.31 | 0.4 | 0.473 | 0.421 | 0.531 | 0.496 | 0.576 | 0.848 | 0.438 |

| Sequence | phosphorylation enrichment (Fer (mouse)) | phosphorylation enrichment (Fes) | phosphorylation enrichment (Fyn) | phosphorylation enrichment (EPHB1) | phosphorylation enrichment (c-Abl (mouse)) | phosphorylation enrichment (Hck) | phosphorylation enrichment (FGFR3) | phosphorylation enrichment (EPHB2) | phosphorylation enrichment (MERTK) | phosphorylation enrichment (c-Src) | phosphorylation enrichment (FGFR1) | phosphorylation enrichment (Jak2) | phosphorylation enrichment (AncSZ) | SH2 binding enrichment (SHP2-C SH2) | SH2 binding enrichment (Grb2 SH2) | SH2 binding enrichment (c-Src SH2) |
| --- | --- | --- | --- | --- | --- | --- | --- | --- | --- | --- | --- | --- | --- | --- | --- | --- |
| LTDLRYKVSGL | 0.404 | 0.725 | 0.352 | 0.379 | 0.565 | 0.377 | 0.437 | 0.479 | 0.427 | 0.46 | 0.496 | 0.575 | 0.581 | 0.498 | 0.761 | 0.397 |
| RRIHSNRGHLW [VHL_Y112_Y112N] | 0.485 | 0.732 | 0.574 | 0.496 | 0.825 | 0.709 | 0.408 | 0.48 | 0.677 | 0.625 | 0.357 | 0.653 | 0.702 | 0.568 | 0.923 | 0.484 |
| VSNFNYFYHRE [KCNA1_Y413] | 0.404 | 0.999 | 0.433 | 0.614 | 0.874 | 0.501 | 1.86 | 0.549 | 0.47 | 0.512 | 1.66 | 0.943 | 1.01 | 1.9 | 1.07 | 0.795 |
| LIDGYYRLTED [JAK2_Y373_A377E] | 0.564 | 1.32 | 0.625 | 0.708 | 1.07 | 0.778 | 1.57 | 0.914 | 0.574 | 0.899 | 1.51 | 7.39 | 1.48 | 4.88 | 0.886 | 9 |
| KLMTEYKRRKQ [ARFGEF3_Y2029_K2031R] | 0.573 | 0.572 | 0.544 | 0.477 | 0.503 | 0.521 | 0.646 | 0.496 | 0.536 | 0.526 | 0.677 | 0.458 | 0.661 | 0.636 | 0.642 | 0.342 |
| WIGRKYKKVRF [F8_Y442_R437W] | 0.492 | 0.611 | 0.552 | 0.547 | 0.676 | 0.546 | 0.54 | 0.518 | 0.527 | 0.619 | 0.506 | 0.571 | 0.567 | 0.456 | 1.28 | 0.388 |
| FTRNYYVWAVL [CYBA_Y88_R90W] | 1.42 | 1.7 | 0.858 | 3.79 | 12 | 0.75 | 5.58 | 1.55 | 3.54 | 0.506 | 6.92 | 1.84 | 1.6 | 1.11 | 1.04 | 0.581 |
| SVSVNYGDLVQ [GRAP_Y101_Q104L] | 0.54 | 0.855 | 0.506 | 0.516 | 0.61 | 0.476 | 0.633 | 0.557 | 0.42 | 0.419 | 0.565 | 0.728 | 0.745 | 0.695 | 0.824 | 0.479 |
| DRTGHYLCNAC [GATA1_Y223] | 0.408 | 0.769 | 0.389 | 0.389 | 0.575 | 0.489 | 0.449 | 0.676 | 0.499 | 0.469 | 0.349 | 0.885 | 0.691 | 0.595 | 0.792 | 0.503 |
| FSEVRYVKEPY [HIPK4_Y170] | 0.404 | 1.06 | 0.372 | 0.474 | 0.783 | 0.388 | 0.538 | 0.449 | 0.371 | 0.392 | 0.668 | 1.06 | 0.9 | 0.52 | 0.908 | 0.624 |
| PSVVAYPKRSQ [MARK3_Y432] | 0.531 | 0.793 | 0.565 | 0.517 | 0.522 | 0.573 | 0.949 | 0.413 | 0.409 | 0.309 | 0.39 | 0.531 | 0.834 | 0.476 | 0.554 | 0.367 |
| ALPGEYIPTVF [RAC1_Y32_F28L] | 0.46 | 1.16 | 0.612 | 0.585 | 0.7 | 0.492 | 0.697 | 0.595 | 0.426 | 0.514 | 0.573 | 1.12 | 1.1 | 0.643 | 0.697 | 0.509 |
| LAGRFYALRSM [CKB_Y174_K177R_YF] | 0.843 | 1.92 | 0.737 | 0.583 | 0.642 | 0.821 | 1.84 | 0.944 | 0.509 | 0.571 | 0.598 | 0.59 | 1.29 | 0.874 | 1.38 | 1.2 |
| GKGGSYSQAAC [HLA-B_Y344] | 0.408 | 0.649 | 0.342 | 0.352 | 0.625 | 0.419 | 0.444 | 0.365 | 0.377 | 0.396 | 0.385 | 0.569 | 0.452 | 0.881 | 0.971 | 0.746 |
| LFEDHYLLGTS [ASS1_Y87_R86H_YF] | 0.569 | 1.15 | 0.783 | 0.618 | 0.662 | 0.566 | 0.707 | 0.586 | 0.384 | 1.01 | 0.494 | 1.15 | 1.27 | 0.634 | 1.22 | 0.534 |
| NLSVRYDSSLK [ABCC8_Y1353] | 0.422 | 0.98 | 0.353 | 0.515 | 0.55 | 0.473 | 0.633 | 0.457 | 0.381 | 0.492 | 0.446 | 0.847 | 0.68 | 0.863 | 0.887 | 0.587 |

Reference: the supplement of paper PMC10065799, “High-throughput profiling of sequence recognition by tyrosine kinases and SH2 domains using bacterial peptide display” (eLife, 2023)
